This assay concerns the target dansyl-CaM (dansylated calmodulin), P0DP29. The assay is described as follows: other fluorescence titration. The following applies: remark: other sources report otherwise.

B1: purified recombinant RGS14 (Regulator of G Protein Signaling 14), O08773 1-544 (natural protein)
chain: MPGKPKHLGVPNGRMVLAVSDGELTSTSGSQAQGEGRGSSLSIHSLPSGPSSPFSTDEQPVASWAQSFERLLQDPRGLAYFTEFLKKEFSAENVTFWQACERFQQIPASDTKQLAQEAHNIYHEFLSSQALSPVNIDRQAWLSEEVLAQPRPDMFRAQQLQIFNLMKFDSYARFVKSPLYQECLLAEAEGRPLREPGSSHLGSPDTARKKPKLKPGKSLPLGVEELGQLPLAEGRPLRKSFRREMPGGAVNSALRRESQGSLNSSASLDLGFLAFVSSKSESHRKSLGSGEGESESRPGKYCCVYLPDGTASLALARPGLTIRDMLAGICEKRGLSLPDIKVYLVGKEQKALVLDQDCTVLADQEVRLENRITFQLELVGLERVVRISAKPTKRLQEALQPILAKHGLSLDQVVLHRPGEKQLVDLENLVSSVASQTLVLDTLPDAKTREASSIPPCRSQGCLPRTQTKDSHLPPLSSSLSVEDASGSTGKRQTCDIEGLVELLNRVQSSGAHDQRGLLRKEDLVLPEFLQLPSQRPGSQEAPP
modifications: here or on the partner: dansyl label (site not stated)
The molecule B1 had a stoichiometry N of 1.

In general, stoichiometry N refers to a count of units in the complex or per binding partner.

The record behind these values is PMC6554723.
